Details in all cases: both partners purified
Experiment [1] has as its target T1, stoichiometric mixture of full-length Drosophila melanogaster H2A-H2B and H3-H4 (octamer-mix) (Drosophila melanogaster, UniProt P84051 1-124; P02283 1-123; P02299 1-136; P84040 1-103).
T1 construct: histone H2A, Drosophila melanogaster, full-length; histone H2B, Drosophila melanogaster, full-length; histone H3, Drosophila melanogaster, full-length; histone H4, Drosophila melanogaster, full-length; At 300 mM NaCl without APLF^AD this is a mixture of H2A-H2B dimers and H3-H4 tetramers, not a preformed octamer; also called stoichiometric core-histone mix; histone octamer; copies: 2 + 2 + 2 + 2
Nature of the experiment: native MS; octamer-mix and APLF^AD mixed at 1:0.25 to 1:3 octamer equivalent to APLF^AD, exchanged into 300 mM ammonium acetate pH 7.5; Exactive Plus EMR.

Experiment [2] has as its target T1, stoichiometric mixture of full-length …. Put plainly: ITC; 5 μM octamer-mix in the cell titrated with 90 μM APLF^AD in the syringe; 25 mM NaPi pH 7.0, 300 mM NaCl, 25°C; one set of sites model.
The target of experiment [3] is T2, Drosophila melanogaster histone H3-H4 complex, full-length (Drosophila melanogaster, UniProt P02299 1-136; P84040 1-103).
T2 construct: histone H3, Drosophila melanogaster, full-length; histone H4, Drosophila melanogaster, full-length; Eluted as a histone tetramer in SEC; H3 was 2H/13C/15N-labelled for NMR on H3-H4; also called (H3-H4)2; histone tetramer; copies: 2 + 2
Put plainly: NMR titration; 20 μM [U-2H/13C/15N]H3-H4 incubated with 0, 10 or 20 μM APLF 459–474 peptide in 25 mM NaPi pH 7.0, 300 mM NaCl, then exchanged to 50 mM acetate pH 5; TROSY at 900 MHz, 308 K.

Changes are numbered by the printed parent chain. Names and notes keep the numbering of the source.

B1: acidic domain of Homo sapiens APLF (APLF^AD, residues 450 to 511), wild type (domain or fragment)
chain: DEDNDNVGQPNEYDLNDSFLDDEEEDYEPTDEDSDWEPGKEDEEKEDVEELLKEAKRFMKRK
notes: acidic domain of human APLF (aprataxin and polynucleotide kinase-like factor), residues 450 to 511; 15N- or 2H/13C/15N-labelled for NMR; Intrinsically disordered; also called APLF^AD WT; WT; source: E. coli BL21 Rosetta2 (DE3), purified (HisTrap, TEV cleavage, anion exchange, second HisTrap)
Regarding B1, the “stoichiometry N” value in experiment [1] is 2 APLF^AD per histone octamer equivalent.

B2: SUMO-APLF^AD quadruple anchor mutant Y462A/F468A/Y476A/W485A (QA) (domain or fragment)
chain: B1 chain with Y13A, F19A, Y27A, W36A
notes: acidic domain of human APLF, residues 450 to 511; also called APLF^AD QA; source: E. coli BL21 Rosetta2 (DE3), purified; not shown: His tag, N-terminal, cleaved; SUMO, N-terminal, kept
In the case of B2, the binding result in experiment [2] is “binds”.

B3: APLF^AD double anchor mutant Y462A/F468A (DA-34) (domain or fragment)
chain: B1 chain with Y13A, F19A
notes: acidic domain of human APLF, residues 450 to 511; source: E. coli BL21 Rosetta2 (DE3), purified
Regarding B3, in experiment [2], the binding result is on record as “binds”.

B4: SUMO-APLF^AD truncated QA mutant (QA-Δ, residues 449 to 490) (domain or fragment)
chain: LDEDNDNVGQPNEADLNDSALDDEEEDAEPTDEDSDAEPGKE
notes: human APLF residues 449 to 490; source: E. coli BL21 Rosetta2 (DE3), purified; not shown: His tag, N-terminal, cleaved; SUMO, N-terminal, kept
Turning to B4, the binding result in experiment [2] is on record as “binds”.

B5: peptide corresponding to APLF^459–474 (peptide)
peptide: Ac-PNEYDLNDSFLDDEEE-NH2
notes: human APLF residues 459-474; source: synthetic peptide, bought: Biomatik
Regarding B5, the binding result in experiment [3] is given as “binds”.

B6: truncated APLF^AD construct corresponding to residues 449 to 490 (APLF^AD-Δ) (domain or fragment)
chain: GLDEDNDNVGQPNEYDLNDSFLDDEEEDYEPTDEDSDWEPGKE
notes: N-terminal Gly as leftover from TEV cleavage site; human APLF residues 449 to 490; Used for crystallisation with tailless Xl. histones and in ITC with the Dm. octamer-mix; source: E. coli BL21 Rosetta2 (DE3), purified
Regarding B6, in experiment [2], the binding result is reported as “binds”.

For the origin of these results see paper PMC9328677 (Science Advances, 2021).
